The target in this experiment is T1, human Chi3l1 (chitinase 3-like-1) (human, UniProt P36222 22-383).
T1 construct: also called YKL-40; recombinant (r) human Chi3l1
As to the kind of experiment: Western blot / ELISA detection of Chi3l1, denaturing and non-denaturing.

T1 sequence (P36222 22-383 limits assumed): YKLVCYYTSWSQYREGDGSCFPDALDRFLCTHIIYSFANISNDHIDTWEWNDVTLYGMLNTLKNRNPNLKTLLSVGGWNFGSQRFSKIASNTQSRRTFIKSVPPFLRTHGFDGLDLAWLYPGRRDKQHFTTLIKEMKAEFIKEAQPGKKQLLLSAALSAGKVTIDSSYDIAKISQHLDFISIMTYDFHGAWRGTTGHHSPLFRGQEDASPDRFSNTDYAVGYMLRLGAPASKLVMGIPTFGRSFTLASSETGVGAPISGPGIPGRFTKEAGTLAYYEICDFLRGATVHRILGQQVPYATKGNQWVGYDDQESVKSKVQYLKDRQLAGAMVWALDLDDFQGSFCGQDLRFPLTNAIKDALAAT

B1: FRG monoclonal antibody (anti-Chi3l1) (antibody, IgG2b, V domains shown)
VH: QIQLVQSGPELKKPGETVKISCKASGYTFTNYGMNWVKQAPGKGLKWMGWINTYTGEPTYADDFKGRFAFSLETSASTAYLQINNLRNEDMSTYFCARLGYGKFYVMDYWGQGTSVTVSS
VL: DVVMTQTPLSLPVSLGDQASISCRSSQSLVHSNGNTYLHWYLQKPGQSPKLLIYKVSNRFSGVPDRFSGSGSGTDFTLKISRVEAEDLGVYFCSQSTHVTWTFGGGTKLEIK
notes: The antibody is described as an IgG2b Kappa monoclonal; also called FRG mAb; FRG antibody
Turning to B1, the binding result is on record as “binds”.

The values above are taken from patent US20190062457A1 (BROWN UNIVERSITY, published 2019).
